# Laboratory results taken from publication PMC8225329, “Molecular and Mechanistic Characterization of PddB, the First PLP-Independent 2,4-Diaminobutyric Acid Racemase Discovered in an Actinobacterial D-Amino Acid Homopolymer Biosynthesis” (Frontiers in Microbiology, 2021).
# How the values were obtained:
# [1] = substrate: NCC[C@H](N)C(=O)O; experiment: initial-velocity racemase assay, FDLA (Marfey) LC-MS; Lineweaver-Burk; assay type: biochemical, Streptoalloteichus hindustanus; settings: L to D direction, no cofactor, 100 mM TAPS-NaOH pH 8.5, 30°C
# From the text: (§1) initial-velocity racemase assay, FDLA (Marfey) LC-MS; Lineweaver-Burk on PddB
# [2] = substrate: NCC[C@@H](N)C(=O)O; experiment: as above; assay type: biochemical, Streptoalloteichus hindustanus; settings: D to L direction, no cofactor, 100 mM TAPS-NaOH pH 8.5, 30°C
# From the text: as §1
protein,measurement,setting,value
"PddB (Streptoalloteichus hindustanus) (protein, full length, C-terminal His6 tag, pET-21b(+), E. coli Rosetta 2 (DE3), Ni-NTA; 33 kDa; monomer; C-terminal domain given as 163-295) MSDQHNQVLDSELTAFRERVVEGVRFDTLRFCIMHGDGNVIMIVDERLSGLAAESVTSTLARELCQSFTVPKVDGVAFVRPTVSPLRMTYFERDGTHAQMCGNALRCLTRYGVERGYLSTEDSVETDDGVKRVSFVDGEARAALGPGREYQQVRDNWYFAFSGLPHLVVVMDDLDAFNAVNVRVDGAKLAHDEELCRQLNHPEGLHVNYLHRGEDHIAIRTFEVGVEDETKACGTGVAATGYIAHRAWGMPYPLRVRVPGGVMTAEDGEHGLTISGVTGYLFTEDETPVANVFQRSVL",Km,[1],10.1 ± 1.9 mM
same,Vmax,[1],210 µmol/min/mg
same,Vmax/Km,[1],20800 µL/min/mg
same,kcat,[1],116 ± 12 s⁻¹
same,kcat/Km,[1],11400 M⁻¹ s⁻¹
same,Km,[2],6.1 ± 1.0 mM
same,Vmax,[2],136 µmol/min/mg
same,Vmax/Km,[2],22200 µL/min/mg
same,kcat,[2],75 ± 5 s⁻¹
same,kcat/Km,[2],12200 M⁻¹ s⁻¹
